Reference: the supplement of paper PMC10201428
± gives the standard deviation of the averaged measurements.

How the values were obtained:
[1] = test system: VchCAST RNA-guided transposition machinery (E. coli BL21(DE3) host, lacZ target); assay: relative integration efficiency (T-RL orientation) vs wild-type transposon end (log2 (normalized fold change)); transposon end mutated: right end (5 bp flank + 75 bp right end); higher = more efficient transposition
How it was run: (§1)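 A T7-driven effector plasmid encoding a CRISPR array, tniQ-cas8-cas7-cas6 and tnsA-tnsB-tnsC was co-transformed into E. coli BL21(DE3) together with a pUC57 mini-transposon donor holding barcoded pools of 1549 left-end or 1849 right-end variants. Transformants were plated with 0.1 mM IPTG at 37°C for 18 h. Illumina sequencing of PCR-amplified input plasmids and genomic integration junctions gave barcode abundances, and relative integration efficiency is their output/input fold change, normalised to reference barcodes and log-transformed.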

[2] = test system: VchCAST RNA-guided transposition machinery (E. coli BL21(DE3) host, lacZ target); assay: relative integration efficiency (T-LR orientation) vs wild-type transposon end (log2 (normalized fold change)); transposon end mutated: right end (5 bp flank + 75 bp right end); higher = more efficient transposition
How it was run: as §1

| Sequence | relative integration efficiency (log2) [1] | relative integration efficiency (log2) [2] |
| --- | --- | --- |
| ACATTTGTTGATACAACCATAAAATGATAATTACACCCATAAATTGATAATTAAGACACCCATAAATTGATATTGCCTCTGATCATAGTCAGACCAACATTGCTACGACCCGTATTCGCACCGACAC | -0.306 ± 0.23 | -0.137 ± 0.32 |
| ACATTTGTTGATACAACCATAAAATGATAATTACACCCATAAATTGATAATTAAGTGACCCATAAATTGATATTGCCTCTGATCATAGTCAGACCAACATTGCTACGACCCGTATTCGCACCGACAC | -0.484 ± 0.16 | 0.91 ± 0.58 |
| ACATTTGTTGATACAACCATAAAATGATAATTACACCCATAAATTGATAATTACACCCATAAATTGATATTGCCTCTGATCATAGTCAGACCAACATTGCTACGACCCGTATTCGCACCGACACTGA | -0.821 ± 0.28 | 1.39 ± 0.33 |
| ACATTTGTTGATACAACCATAAAATGATAATTACACCCATAAATTGATAATTACCACTCCCAATTTAACTATAACGCTCTGATCATAGTCAGACCAACATTGCTACGACCCGTATTCGCACCGACAC | -0.782 ± 0.24 | 2.61 ± 0.18 |
| ACATTTGTTGATACAACCATAAAATGATAATTACACCCATAAATTGATAATTAGAACACCCATAAATTGATATTGCCTCTGATCATAGTCAGACCAACATTGCTACGACCCGTATTCGCACCGACAC | -0.195 ± 0.2 | -0.0187 ± 0.33 |
| ACATTTGTTGATACAACCATAAAATGATAATTACACCCATAAATTGATAATTAGACAACCCATAAATTGATATTGCCTCTGATCATAGTCAGACCAACATTGCTACGACCCGTATTCGCACCGACAC | -0.476 ± 0.18 | 0.737 ± 0.02 |
| ACATTTGTTGATACAACCATAAAATGATAATTACACCCATAAATTGATAATTAGACACAAACGCCCGGTCGCGGTAAGAGGATCATAGTCAGACCAACATTGCTACGACCCGTATTCGCACCGACAC | -0.538 ± 0.21 | 2.66 ± 0.16 |
| ACATTTGTTGATACAACCATAAAATGATAATTACACCCATAAATTGATAATTATACACAAACGCCCGGTCGCGGTAAGAGGATCATAGTCAGACCAACATTGCTACGACCCGTATTCGCACCGACAC | -1.49 ± 0.49 | 2.63 ± 0.19 |
| ACATTTGTTGATACAACCATAAAATGATAATTACACCCATAAATTGATAATTATACACCCCATAAATTGATATTGCCTCTGATCATAGTCAGACCAACATTGCTACGACCCGTATTCGCACCGACAC | -1.07 ± 0.23 | 1.28 ± 0.067 |
| ACATTTGTTGATACAACCATAAAATGATAATTACACCCATAAATTGATAATTATACCACCCATAAATTGATATTGCCTCTGATCATAGTCAGACCAACATTGCTACGACCCGTATTCGCACCGACAC | -0.694 ± 0.23 | 0.802 ± 0.067 |
| ACATTTGTTGATACAACCATAAAATGATAATTACACCCATAAATTGATAATTATCAAAACACCCATAAATTGATATTGCCTCTGATCATAGTCAGACCAACATTGCTACGACCCGTATTCGCACCGA | -0.514 ± 0.17 | 2.29 ± 0.22 |
| ACATTTGTTGATACAACCATAAAATGATAATTACACCCATAAATTGATAATTATCAAACACCCATAAATTGATATTGCCTCTGATCATAGTCAGACCAACATTGCTACGACCCGTATTCGCACCGAC | -0.252 ± 0.046 | 1.9 ± 0.28 |
| ACATTTGTTGATACAACCATAAAATGATAATTACACCCATAAATTGATAATTATCAACAAACGCCCGGTCGCGGTAAGAGGATCATAGTCAGACCAACATTGCTACGACCCGTATTCGCACCGACAC | -0.451 ± 0.085 | 2.49 ± 0.05 |
| ACATTTGTTGATACAACCATAAAATGATAATTACACCCATAAATTGATAATTATCAACAAACGCCCGGTCGCGGTACTCTGATCATAGTCAGACCAACATTGCTACGACCCGTATTCGCACCGACAC | -0.287 ± 0.0067 | 2.66 ± 0.038 |
| ACATTTGTTGATACAACCATAAAATGATAATTACACCCATAAATTGATAATTATCAACAACATAAATTGATATTGCCTCTGATCATAGTCAGACCAACATTGCTACGACCCGTATTCGCACCGACAC | -0.911 ± 0.21 | 1.36 ± 0.2 |
| ACATTTGTTGATACAACCATAAAATGATAATTACACCCATAAATTGATAATTATCAACACCCATAAATTGATATTGCCTCTGATCATAGTCAGACCAACATTGCTACGACCCGTATTCGCACCGACA | -0.35 ± 0.052 | 0.619 ± 0.036 |
| ACATTTGTTGATACAACCATAAAATGATAATTACACCCATAAATTGATAATTATCAACCCCATAAATTGATATTGCCTCTGATCATAGTCAGACCAACATTGCTACGACCCGTATTCGCACCGACAC | -0.731 ± 0.18 | 1.26 ± 0.17 |
